Test results published in patent US20240261333A1, “NOVEL TARGETS FOR ENHANCING ANTI-TUMOR IMMUNITY” (THE BROAD INSTITUTE, INC., priority 2021, published 2024).

Experiments:
RPL23 (human) = RPL23 (human) (UniProt P62829); test: control IP with IgG, lysate of cells with C-FLAG B3GNT2, mass spectrometry
CHCHD3 (human) = CHCHD3 (human) (UniProt Q9NX63); test: as above
FLG (human) = FLG (human) (UniProt P20930); test: as above
RACK1 (human) = RACK1 (human) (UniProt P63244); test: as above
YTHDF2 (human) = biological target: T1, YTHDF2 (human) (UniProt Q9Y5A9); test: as above
T1 sequence (looked up): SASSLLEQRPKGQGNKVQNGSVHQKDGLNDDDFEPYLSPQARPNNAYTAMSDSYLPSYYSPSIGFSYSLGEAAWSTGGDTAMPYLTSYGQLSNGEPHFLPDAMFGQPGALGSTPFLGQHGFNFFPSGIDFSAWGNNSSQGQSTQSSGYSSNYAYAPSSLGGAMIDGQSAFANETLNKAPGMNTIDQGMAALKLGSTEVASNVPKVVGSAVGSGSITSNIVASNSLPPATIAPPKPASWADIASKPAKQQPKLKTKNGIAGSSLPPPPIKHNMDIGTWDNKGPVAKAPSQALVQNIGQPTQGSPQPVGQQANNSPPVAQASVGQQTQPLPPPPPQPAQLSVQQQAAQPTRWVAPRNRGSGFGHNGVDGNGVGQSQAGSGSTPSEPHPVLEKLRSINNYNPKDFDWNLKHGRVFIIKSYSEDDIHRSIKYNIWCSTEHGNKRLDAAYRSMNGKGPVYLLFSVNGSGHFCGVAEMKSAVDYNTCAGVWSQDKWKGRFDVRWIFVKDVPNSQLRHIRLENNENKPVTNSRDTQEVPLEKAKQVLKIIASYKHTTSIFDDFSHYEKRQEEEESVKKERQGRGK

RHOT2 (human) = RHOT2 (human) (UniProt Q8IXI1); test: as above
Sequence of RHOT2 (human) (Q8IXI1 whole entry): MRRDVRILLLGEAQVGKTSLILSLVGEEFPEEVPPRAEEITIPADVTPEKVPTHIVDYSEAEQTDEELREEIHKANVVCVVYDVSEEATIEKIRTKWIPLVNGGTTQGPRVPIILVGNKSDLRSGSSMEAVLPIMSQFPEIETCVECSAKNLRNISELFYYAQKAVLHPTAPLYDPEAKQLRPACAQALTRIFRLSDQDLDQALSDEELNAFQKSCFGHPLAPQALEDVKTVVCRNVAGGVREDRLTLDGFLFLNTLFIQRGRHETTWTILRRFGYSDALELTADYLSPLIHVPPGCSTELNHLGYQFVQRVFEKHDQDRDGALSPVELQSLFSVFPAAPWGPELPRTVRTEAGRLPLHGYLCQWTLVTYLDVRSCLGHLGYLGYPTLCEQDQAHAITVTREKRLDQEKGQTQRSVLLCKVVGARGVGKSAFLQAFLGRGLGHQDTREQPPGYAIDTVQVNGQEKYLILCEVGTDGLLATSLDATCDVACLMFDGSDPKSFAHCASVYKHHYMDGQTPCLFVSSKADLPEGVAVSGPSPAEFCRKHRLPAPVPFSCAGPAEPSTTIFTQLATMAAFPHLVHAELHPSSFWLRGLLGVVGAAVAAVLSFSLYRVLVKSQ

LCN1 (human) = LCN1 (human) (UniProt P31025); test: as above
MAP4 (human) = MAP4 (human) (UniProt P27816); test: as above
SERPINB3 (human) = SERPINB3 (human) (UniProt P29508); test: as above
Sequence of SERPINB3 (human) (P29508 whole entry): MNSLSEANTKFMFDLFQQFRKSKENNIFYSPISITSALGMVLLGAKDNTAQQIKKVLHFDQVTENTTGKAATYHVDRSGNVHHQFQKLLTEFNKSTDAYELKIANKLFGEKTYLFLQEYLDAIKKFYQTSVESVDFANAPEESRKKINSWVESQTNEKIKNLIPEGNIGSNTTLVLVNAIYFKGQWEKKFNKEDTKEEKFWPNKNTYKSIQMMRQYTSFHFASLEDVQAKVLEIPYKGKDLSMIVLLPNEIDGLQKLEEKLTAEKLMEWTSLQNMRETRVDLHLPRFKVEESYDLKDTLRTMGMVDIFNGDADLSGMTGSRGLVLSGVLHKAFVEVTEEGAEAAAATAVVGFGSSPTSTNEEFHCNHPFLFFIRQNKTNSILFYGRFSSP

TPM3 (human) = TPM3 (human) (UniProt P06753); test: as above
Sequence of TPM3 (human) (P06753 other isoform, or with tags, fused parts or gaps limits assumed): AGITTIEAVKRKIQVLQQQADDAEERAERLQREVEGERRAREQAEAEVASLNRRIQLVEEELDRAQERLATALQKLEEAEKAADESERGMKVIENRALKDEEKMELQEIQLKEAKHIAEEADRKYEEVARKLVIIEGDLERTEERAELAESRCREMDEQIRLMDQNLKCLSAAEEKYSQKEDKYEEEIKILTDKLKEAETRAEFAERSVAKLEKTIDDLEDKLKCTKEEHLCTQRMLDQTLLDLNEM

RPS26 (human) = RPS26 (human) (UniProt P62854); test: as above
DDX1 (human) = DDX1 (human) (UniProt Q92499); test: as above
RPL8 (human) = RPL8 (human) (UniProt P62917); test: as above
RPS14 (human) = RPS14 (human) (UniProt P62263); test: as above
IL13RA2 (human) = IL13RA2 (human) (UniProt Q14627); test: as above
Sequence of IL13RA2 (human) (Q14627 27-380 limits assumed): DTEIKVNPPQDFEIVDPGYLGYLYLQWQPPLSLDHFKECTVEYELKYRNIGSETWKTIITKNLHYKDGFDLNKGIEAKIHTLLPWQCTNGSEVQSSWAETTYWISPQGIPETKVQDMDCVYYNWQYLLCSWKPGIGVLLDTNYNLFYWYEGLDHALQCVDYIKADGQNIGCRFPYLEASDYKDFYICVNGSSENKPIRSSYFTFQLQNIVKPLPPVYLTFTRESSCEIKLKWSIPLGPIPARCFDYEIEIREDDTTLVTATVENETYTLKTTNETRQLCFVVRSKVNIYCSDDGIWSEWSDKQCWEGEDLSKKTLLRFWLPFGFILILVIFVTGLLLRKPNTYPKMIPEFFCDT

DHX9 (human) = DHX9 (human) (UniProt Q08211); test: as above
Sequence of DHX9 (human) (Q08211 whole entry): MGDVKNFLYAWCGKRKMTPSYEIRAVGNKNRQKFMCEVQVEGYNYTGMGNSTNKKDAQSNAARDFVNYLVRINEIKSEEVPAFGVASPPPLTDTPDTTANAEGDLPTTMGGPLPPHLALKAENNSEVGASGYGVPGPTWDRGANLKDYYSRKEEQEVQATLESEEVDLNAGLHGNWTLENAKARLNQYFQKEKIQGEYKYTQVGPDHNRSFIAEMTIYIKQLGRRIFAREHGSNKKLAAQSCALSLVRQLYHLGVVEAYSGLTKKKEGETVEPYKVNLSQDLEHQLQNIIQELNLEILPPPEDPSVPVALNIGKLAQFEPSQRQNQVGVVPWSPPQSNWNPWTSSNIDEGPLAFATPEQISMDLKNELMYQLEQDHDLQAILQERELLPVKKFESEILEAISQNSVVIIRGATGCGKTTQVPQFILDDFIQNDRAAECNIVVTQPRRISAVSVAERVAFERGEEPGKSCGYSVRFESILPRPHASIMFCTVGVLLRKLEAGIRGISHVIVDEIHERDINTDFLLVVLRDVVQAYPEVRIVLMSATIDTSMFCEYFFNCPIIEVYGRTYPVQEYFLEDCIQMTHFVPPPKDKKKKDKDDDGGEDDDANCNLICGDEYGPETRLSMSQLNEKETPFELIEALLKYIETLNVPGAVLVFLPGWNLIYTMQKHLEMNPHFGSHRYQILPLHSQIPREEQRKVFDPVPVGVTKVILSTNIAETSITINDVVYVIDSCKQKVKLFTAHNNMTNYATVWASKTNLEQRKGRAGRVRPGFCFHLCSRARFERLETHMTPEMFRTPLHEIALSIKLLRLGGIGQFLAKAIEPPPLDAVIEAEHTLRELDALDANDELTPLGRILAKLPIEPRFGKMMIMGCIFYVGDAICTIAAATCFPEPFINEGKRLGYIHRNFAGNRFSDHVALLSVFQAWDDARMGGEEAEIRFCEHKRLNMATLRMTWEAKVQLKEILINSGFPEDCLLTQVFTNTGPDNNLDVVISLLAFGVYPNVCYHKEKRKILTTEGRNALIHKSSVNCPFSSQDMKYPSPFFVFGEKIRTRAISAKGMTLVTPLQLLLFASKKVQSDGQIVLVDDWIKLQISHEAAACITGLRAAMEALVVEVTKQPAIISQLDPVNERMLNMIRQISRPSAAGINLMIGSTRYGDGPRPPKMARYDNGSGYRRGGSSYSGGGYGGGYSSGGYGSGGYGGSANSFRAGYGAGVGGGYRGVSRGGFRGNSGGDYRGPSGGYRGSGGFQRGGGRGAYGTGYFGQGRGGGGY

RPL28 (human) = RPL28 (human) (UniProt P46779); test: as above
LGALS7B (human) = LGALS7B (human) (UniProt P47929); test: as above
Sequence of LGALS7B (human) (P47929 whole entry): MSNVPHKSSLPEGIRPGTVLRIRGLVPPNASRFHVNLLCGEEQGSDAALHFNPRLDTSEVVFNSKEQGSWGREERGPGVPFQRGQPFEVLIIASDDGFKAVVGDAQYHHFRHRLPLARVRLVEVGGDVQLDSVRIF

RPL38 (human) = RPL38 (human) (UniProt P63173); test: as above
GEMIN4 (human) = GEMIN4 (human) (UniProt P57678); test: as above
RPL7 (human) = RPL7 (human) (UniProt P18124); test: as above
SYNM (human) = SYNM (human) (UniProt O15061); test: as above
PSMB6 (human) = PSMB6 (human) (UniProt P28072); test: anti-FLAG co-IP from lysate of N-FLAG B3GNT2 cells, mass spectrometry
Sequence of PSMB6 (human) (P28072 35-239 limits assumed): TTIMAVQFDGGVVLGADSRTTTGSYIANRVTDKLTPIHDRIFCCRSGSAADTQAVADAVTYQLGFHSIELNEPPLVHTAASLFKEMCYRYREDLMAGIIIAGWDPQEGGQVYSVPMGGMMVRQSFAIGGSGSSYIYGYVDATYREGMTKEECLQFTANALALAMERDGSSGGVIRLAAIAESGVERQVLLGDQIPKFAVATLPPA

RPS6 (human) = RPS6 (human) (UniProt P62753); test: as above
PSMA5 (human) = PSMA5 (human) (UniProt P28066); test: as above
Sequence of PSMA5 (human) (P28066 whole entry): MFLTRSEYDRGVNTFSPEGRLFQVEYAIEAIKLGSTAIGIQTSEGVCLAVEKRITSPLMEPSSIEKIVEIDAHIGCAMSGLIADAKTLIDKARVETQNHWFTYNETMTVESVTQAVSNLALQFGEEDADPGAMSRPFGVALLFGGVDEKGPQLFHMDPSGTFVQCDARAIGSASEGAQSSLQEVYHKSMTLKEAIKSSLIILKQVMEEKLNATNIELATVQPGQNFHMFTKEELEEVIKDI

PXN (human) = PXN (human) (UniProt P49023); test: as above
AIFM1 (human) = AIFM1 (human) (UniProt O95831); test: as above
Sequence of AIFM1 (human) (O95831 55-613 limits assumed): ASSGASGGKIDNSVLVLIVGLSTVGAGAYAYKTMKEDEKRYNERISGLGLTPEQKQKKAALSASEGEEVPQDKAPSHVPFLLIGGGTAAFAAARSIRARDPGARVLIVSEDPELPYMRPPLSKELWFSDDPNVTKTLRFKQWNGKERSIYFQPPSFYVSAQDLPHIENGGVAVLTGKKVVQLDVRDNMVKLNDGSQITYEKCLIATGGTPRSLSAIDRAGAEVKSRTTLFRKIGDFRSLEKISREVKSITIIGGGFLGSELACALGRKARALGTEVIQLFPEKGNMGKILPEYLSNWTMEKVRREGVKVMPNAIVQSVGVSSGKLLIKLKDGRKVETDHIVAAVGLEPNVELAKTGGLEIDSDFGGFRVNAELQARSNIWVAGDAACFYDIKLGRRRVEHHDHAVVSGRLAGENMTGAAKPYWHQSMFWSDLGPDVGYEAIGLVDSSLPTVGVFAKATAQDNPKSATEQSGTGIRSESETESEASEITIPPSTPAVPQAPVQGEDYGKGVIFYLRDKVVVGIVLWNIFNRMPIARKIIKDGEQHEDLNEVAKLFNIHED

ACSL3 (human) = ACSL3 (human) (UniProt O95573); test: as above
HSP90AB1 (human) = HSP90AB1 (human) (UniProt P08238); test: as above
LDHA (human) = LDHA (human) (UniProt P00338); test: as above
RRBP1 (human) = RRBP1 (human) (UniProt Q9P2E9); test: as above
KPNB1 (human) = KPNB1 (human) (UniProt Q14974); test: as above
Sequence of KPNB1 (human) (Q14974 whole entry): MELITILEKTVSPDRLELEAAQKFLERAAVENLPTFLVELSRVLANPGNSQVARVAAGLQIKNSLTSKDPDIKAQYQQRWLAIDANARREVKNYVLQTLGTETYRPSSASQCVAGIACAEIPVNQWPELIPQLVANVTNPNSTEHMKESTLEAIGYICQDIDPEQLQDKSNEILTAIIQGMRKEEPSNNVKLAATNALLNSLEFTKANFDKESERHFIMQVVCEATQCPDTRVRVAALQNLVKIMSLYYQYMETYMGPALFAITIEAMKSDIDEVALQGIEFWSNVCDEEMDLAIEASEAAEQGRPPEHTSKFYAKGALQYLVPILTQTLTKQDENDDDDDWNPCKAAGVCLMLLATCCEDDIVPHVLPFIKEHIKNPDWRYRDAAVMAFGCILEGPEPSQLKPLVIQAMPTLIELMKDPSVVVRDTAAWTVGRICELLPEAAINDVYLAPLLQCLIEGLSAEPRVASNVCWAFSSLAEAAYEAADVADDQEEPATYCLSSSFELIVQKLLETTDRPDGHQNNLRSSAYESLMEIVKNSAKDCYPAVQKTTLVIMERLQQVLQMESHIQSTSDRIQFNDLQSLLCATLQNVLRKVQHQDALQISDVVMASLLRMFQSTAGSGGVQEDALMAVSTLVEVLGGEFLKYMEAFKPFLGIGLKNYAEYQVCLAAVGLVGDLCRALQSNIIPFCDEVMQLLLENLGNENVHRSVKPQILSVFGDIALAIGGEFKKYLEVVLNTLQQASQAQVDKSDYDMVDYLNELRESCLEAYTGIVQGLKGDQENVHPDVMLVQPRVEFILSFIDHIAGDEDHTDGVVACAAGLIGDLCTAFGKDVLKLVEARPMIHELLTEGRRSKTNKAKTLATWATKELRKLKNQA

Substance: IgG control (Millipore Sigma 12-371) (antibody)
- co-IP mass spectrometry count (RPL23 (human)): 4
- co-IP mass spectrometry count (CHCHD3 (human)): 11
- co-IP mass spectrometry count (FLG (human)): 15
- co-IP mass spectrometry count (RACK1 (human)): 0
- co-IP mass spectrometry count (YTHDF2 (human)): 2
- co-IP mass spectrometry count (RHOT2 (human)): 0
- co-IP mass spectrometry count (LCN1 (human)): 6
- co-IP mass spectrometry count (MAP4 (human)): 0
- co-IP mass spectrometry count (SERPINB3 (human)): 2
- co-IP mass spectrometry count (TPM3 (human)): 2
- co-IP mass spectrometry count (RPS26 (human)): 0
- co-IP mass spectrometry count (DDX1 (human)): 5
- co-IP mass spectrometry count (RPL8 (human)): 3
- co-IP mass spectrometry count (RPS14 (human)): 10
- co-IP mass spectrometry count (IL13RA2 (human)): 0
- co-IP mass spectrometry count (DHX9 (human)): 0
- co-IP mass spectrometry count (RPL28 (human)): 3
- co-IP mass spectrometry count (LGALS7B (human)): 3
- co-IP mass spectrometry count (RPL38 (human)): 6
- co-IP mass spectrometry count (GEMIN4 (human)): 0
- co-IP mass spectrometry count (RPL7 (human)): 3
- co-IP mass spectrometry count (SYNM (human)): 2

Substance: N-terminal FLAG tagged B3GNT2 (from UniProt Q9NY97 1-397) (enzyme)
- co-IP mass spectrometry count (PSMB6 (human)): 5
- co-IP mass spectrometry count (RPS6 (human)): 11
- co-IP mass spectrometry count (PSMA5 (human)): 2
- co-IP mass spectrometry count (PXN (human)): 2
- co-IP mass spectrometry count (AIFM1 (human)): 5
- co-IP mass spectrometry count (ACSL3 (human)): 5
- co-IP mass spectrometry count (HSP90AB1 (human)): 10
- co-IP mass spectrometry count (LDHA (human)): 5
- co-IP mass spectrometry count (RRBP1 (human)): 2
- co-IP mass spectrometry count (KPNB1 (human)): 3
